# Where “and” joins values, the source holds several entries; their conditions need not be identical. Equal entries are not always repeated.
# B1: OVA: Model protein: OVA (molecular weight 45 kDa, manufactured by Sigma-Aldrich Corp.) (protein, UniProt P01012 2-386, looked up)
# Ovalbumin: GSIGAASMEFCFDVFKELKVHHANENIFYCPIAIMSALAMVYLGAKDSTRTQINKVVRFDKLPGFGDSIEAQCGTSVNVHSSLRDILNQITKPNDVYSFSLASRLYAEERYPILPEYLQCVKELYRGGLEPINFQTAADQARELINSWVESQTNGIIRNVLQPSSVDSQTAMVLVNAIVFKGLWEKAFKDEDTQAMPFRVTEQESKPVQMMYQIGLFRVASMASEKMKILELPFASGTMSMLVLLPDEVSGLEQLESIINFEKLTEWTSSNVMEERKIKVYLPRMKMEEKYNLTSVLMAMGITDVFSSSANLSGISSAESLKISQAVHAAHAEINEAGREVVGSAEAGVDAASVSEEFRADHPFLFCIKHIATNAVLFFGRCVSP
# Experiments:
# [1] = Leaching test: leakage (membrane disruptive function); type: biochemical; conditions: sample not acid-aggregated
# Experimental: Herein, the term “membrane disruptive function” means a function of causing leakage in a leaching test. Herein, the leaching test in the present specification is a test in which liposomes (dispersion) including an aqueous solution containing a quenching substance and a fluorescent substance, and an evaluation sample dispersion such as a solution containing a complex (aggregate of a pH sensitive carrier supporting a physiologically active substance) are added to an aqueous solution whose pH is adjusted to a predetermined level, followed by incubating the aqueous solution at 37° C. for 90 minutes or 30 minutes and measuring the fluorescence of the aqueous solution. According to this method, an amount of a fluorescent substance leached out from the liposomes can be measured, from which the liposome membrane disruptive function of the complex can be confirmed.
# Herein, the expression “to develop a membrane disruptive function promoting effect” means to satisfy both of requirements (1) and (2): (1) in the leaching test, a leakage at a predetermined pH that is less than a physiological pH increases compared to a leakage at the physiological pH and the amount of increase is larger than the amount of increase in a case where the pH sensitive compound alone is subjected to the test; and (2) in the leaching test at a predetermined pH less than the physiological pH, a leakage of the complex is more than the sum of a leakage of the pH sensitive compound alone and a leakage of the amphipathic substance alone. More specifically, to develop a membrane disruptive function promoting effect means that, in the leaching test at a pH of 7.4 and at a pH of 5.0 or 4.5, a leakage Lc of the complex, a leakage La of the pH sensitive compound alone, and a leakage Lb of the amphipathic substance alone satisfy both the following relations. That is, the above (1) is represented by the following Formula (1) and the above (2) is represented by the following Formula (2). […]
# 3,000 nmol of EYPC (egg yolk phosphatidylcholine) dissolved in chloroform was measured and introduced into a 10-mL pear-shaped flask, and a thin film was produced using a rotary evaporator (BuCHI). […]
# Meanwhile, the case of an EYPC liposome dispersion liquid only was designated as 0%, the value obtained in a case in which 30 μL of Triton-X100 diluted to ten time was added was designated as 100%, and the leakage was calculated.
# Specifically, the leakage was calculated according to the following formula 4. In the following formula, the fluorescence intensity thus measured was designated as L, the fluorescence intensity of only the EYPC liposome dispersion liquid encapsulating a fluorescent substance was designated as L0, and the fluorescence intensity in the case of having Triton-X100 added thereto was designated as L100.
# [2] = Integration of peptide with pH sensitive carrier: absorbance at 750 nm (Lowry kit), 0.22-μm filtration; type: physicochemical; conditions: for peptide-derived absorbance: mixed liquid with the pH sensitive carrier at a neutral pH; for absorbance of the solution after filtration: pH lowered to obtain an aggregate of the pH sensitive carrier
# Experimental: (§1) When a liquid including the complex obtained as described above is treated with a filter (for example, having a pore size of 0.22 μm), and the concentrations of the physiologically active substance before and after a filtration treatment are measured, the integration ratio of the physiologically active substance (proportion of the amount of the physiologically active substance incorporated into an aggregate of the pH sensitive carrier with respect to the total amount of the physiologically active substance added) can be checked. Here, the concentration of the physiologically active substance can be measured by any known method. Meanwhile, in the present specification, the integration efficiency of the physiologically active substance is defined as a value calculated by the following formula 3 based on the measurement of the absorbance before and after a filtration treatment. At this time, the absorbance may be measured at a wavelength corresponding to the absorption wavelength range of the physiologically active substance (for example, 280 nm in the case of a protein or a peptide, and 260 nm in the case of a nucleic acid). Alternatively, the liquid is colored using a commercially available quantification kit, and then the absorbance may be measured at a wavelength that is recommended by the protocol of the kit.
# (§2) Integration efficiency of physiologically active substance (%)=[(Absorbance before filtration treatment−Absorbance after filtration treatment)/(Absorbance before filtration treatment)]×100 (Formula 3)
# […] and […] were used as peptides, and the concentration of the peptide was adjusted to 0.8 mg/mL. […] The pH at the time of preparing an aggregate of the pH sensitive carrier was adjusted to 4 using 1 N sulfuric acid. The time for standing was set to 2 hours. The mixed liquid was passed through a 0.22-μm filter, the liquid before and after filtration was colored using a peptide quantification kit (Lowry kit, manufactured by NACALAI TESQUE, INC.), and measurement of the absorbance at a wavelength of 750 nm was carried out.
# [3] = Integration of OVA with pH sensitive carrier: absorbance at 595 nm (CBB) before and after 0.22-μm filtration; type: physicochemical; conditions: for integration efficiency for OVA based on the change in the absorbance: DLPC 1,000 nmol in 1 mL
# Experimental: as §1, §2
# 2. Next, separation of the protein was checked. PBS at pH 7.4 containing OVA was passed through a 0.22-μm filter similarly to the previous operation. The liquid before and after the filtration treatment was colored using a protein quantification kit (protein assay CBB solution, manufactured by NACALAI TESQUE, INC.), and measurement of the absorbance at a wavelength of 595 nm was performed. […] Meanwhile, the absorbance was converted to concentration using a calibration curve, and while the OVA concentration before filtration was 0.81 mg/mL, the OVA concentration after filtration was 0.79 mg/mL. The concentrations thus obtained were consistent with the feed concentration (FIG. 3B). It was confirmed that free OVA all escaped without being captured by the filtration. Therefore, it was considered that integration of the aggregate of the pH sensitive carrier and the protein can be evaluated by measuring the protein concentrations before and after passage through a filter (pore diameter 0.22 μm).
# OVA was mixed with a dispersion liquid of the pH sensitive carrier, and a mixed liquid was prepared. Subsequently, the mixed liquid was passed through a filter by a test method similar to section 2. of Experiment 2, and the change in the absorbance (corresponding to the OVA concentration) before and after a filtration treatment was investigated. […]
# [4] = aggregate of DLPC-deoxycholic acid carrier, pH 4, 2 hours
# [5] = OVA 0.8 mg/mL, 1,000 nmol amphiphilic substance and 1,600 nmol pH sensitive compound in 1 mL, pH 4, 1 hour, listed as OVA only
# [6] = PBS at pH 7.4, no carrier, from calibration curve
molecule,measurement,setting,value
"CCCCCCCCCCCC(=O)OC[C@H](COP(=O)([O-])OCC[N+](C)(C)C)OC(=O)CCCCCCCCCCC [DLPC alone, 1,2-dilauroyl-sn-glycero-3-phosphatidylcholine]",Leakage,[1]; leaching test at pH 5.0,2.587% and 4.587%
same,Leakage,[1]; leaching test at pH 7.4,1.188% and 2.688%
RGPESRLL,peptide-derived absorbance,[2]; RGPESRLL,1.40
same,absorbance of the solution after filtration,[2]; RGPESRLL,0.82
same,integration efficiency of the RGPESRLL peptide based on the change in absorbance,[2]; [4],about 41%
SIINFEKL,integration efficiency of the SIINFEKL peptide based on the change in absorbance,[2]; [4],about 27%
same,peptide-derived absorbance,[2],0.44
same,absorbance of the solution after filtration,[2],0.32
B1,Absorbance after filtration (corresponding to the OVA concentration),[3]; [5],0.651 and 0.533
same,Absorbance before filtration (corresponding to the OVA concentration),[3]; [5],0.661 and 0.588
same,OVA concentration after filtration,[3]; [6],0.79 mg/mL
same,OVA concentration before filtration,[3]; [6],0.81 mg/mL
same,Absorbance at 595 nm before filtration,"[3]; PBS at pH 7.4 containing OVA, no carrier",0.616
same,Absorbance at 595 nm after filtration,"[3]; PBS at pH 7.4 containing OVA, no carrier, 0.22-μm filter",0.601
same,integration efficiency for OVA based on the change in the absorbance,"[3]; carrier with deoxycholic acid 400 nmol/mL, pH 4",about 42%
same,integration efficiency for OVA based on the change in the absorbance,"[3]; carrier with deoxycholic acid 1,600 nmol/mL, pH 4",about 60%
same,integration efficiency for OVA based on the change in the absorbance,"[3]; carrier with deoxycholic acid 6,400 nmol/mL, pH 4",about 64%

# Source: US20210145750A1, “COMPLEX, pH SENSITIVE COMPOSITION INCLUDING COMPLEX, AND METHOD FOR PRODUCING COMPLEX” (TERUMO KABUSHIKI KAISHA, priority 2017, published 2021)
